Assay results published in patent publication US20240270821A1, “GIP/GLP1/GCG TRI-RECEPTOR AGONISTS AND USES THEREOF” (priority 2023, published 2024).
Residue numbers refer to the chain shown, from its start. Starred links: 1 amine or outer side, 2 acyl side, 3 side chain; linkers in the order of their positions; H or OH if unused. Non-standard residues stand in square brackets, D forms with d. Groups on a side chain read outwards from the residue. No end group written: not given here. *: point of attachment. C18 diacid = O=C(O)CCCCCCCCCCCCCCCCC(=O)*; γGlu = O=C(O)[C@H](CCC(=O)[*:2])N[*:1]; αMe4Pal = C[C@](N)(Cc1ccncc1)C(=O)O; 4Pal = N[C@@H](Cc1ccncc1)C(=O)O; αMeL = CC(C)C[C@](C)(N)C(=O)O; Orn = NCCC[C@H](N)C(=O)O; Dab = NCC[C@H](N)C(=O)O; Aib = CC(C)(N)C(=O)O

T1: human GIP receptor (human) (UniProt P48546)
T1 sequence (looked up): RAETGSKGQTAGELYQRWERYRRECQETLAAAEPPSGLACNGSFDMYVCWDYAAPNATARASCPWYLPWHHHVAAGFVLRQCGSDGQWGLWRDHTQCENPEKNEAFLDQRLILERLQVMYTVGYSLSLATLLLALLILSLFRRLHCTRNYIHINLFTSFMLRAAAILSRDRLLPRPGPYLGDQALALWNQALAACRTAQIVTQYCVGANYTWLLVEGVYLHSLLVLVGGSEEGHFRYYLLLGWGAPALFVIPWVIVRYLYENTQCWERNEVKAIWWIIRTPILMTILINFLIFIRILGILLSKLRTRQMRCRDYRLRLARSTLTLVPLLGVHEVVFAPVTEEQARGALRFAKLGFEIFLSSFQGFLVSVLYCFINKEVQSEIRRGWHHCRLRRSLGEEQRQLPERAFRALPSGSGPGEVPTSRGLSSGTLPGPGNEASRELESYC

B1: Example 1042 (peptide)
chain: YXQGTFTSDXSQXLDXKAQXAFIEXLIEGGPSSGAPPPSGSEE
modifications: not fully specified; non-natural residues; lipidated Lys; C-terminal amide; synthetic construct; SITE 2: note = 2-Aminoisobutyric Acid; SITE 10: note = 3-(4-Pyridyl)-L-alanine; SITE 13: note = alpha-methyl-leucine; SITE 16: note = L-ornithine; SITE 17: note = Lysine is chemically modified through conjugation of the epsilon-amino group of the Lysine side chain with (2-[2-(2-
B2: Example 1064 (peptide)
chain: B1 chain with Q12X, I27L
modifications: Aib, 4Pal, Orn, αMeL, αMeY; lysine acylated C18 diacid; amide; synthetic construct; SITE 2: note = 2-Aminoisobutyric Acid; SITE 10: note = 3-(4-Pyridyl)-L-alanine; SITE 12: note = L-ornithine; SITE 13: note = alpha-methyl-leucine; SITE 16: note = L-ornithine; SITE 17: note = Lysine is chemically modified through conjugation of the epsilon-amino group of the Lys
B3: Example 1061 (peptide)
chain: B1 chain with Q12X, X25Y, E28A
modifications: non-natural residues, C-terminal amide, acylated Lys with fatty diacid; synthetic construct; SITE 2: note = 2-Aminoisobutyric Acid; SITE 10: note = 3-(4-Pyridyl)-L-alanine; SITE 12: note = …; SITE 13: note = alpha-methyl-leucine; SITE 16: note = L-ornithine; SITE 17: note = Lysine is chemically modified through conjugation of the epsilon-amino group of the Lys
B4: Example 1049 (peptide)
chain: B1 chain with X10F, Q12X, I27L, S39G
modifications: Aib, Orn, αMeL, αMeY; acylated Lys; C-terminal amide; synthetic construct; SITE 2: note = 2-Aminoisobutyric Acid; SITE 12: note = L-ornithine; SITE 13: note = alpha-methyl-leucine; SITE 16: note = L-ornithine; SITE 17: note = Lysine is chemically modified through conjugation of the epsilon-amino group of the Lysine side chain with (gamma-Glu)2-CO-(CH2)
B5: Example 1065 (peptide)
chain: B1 chain with Q12X, I27L
modifications: Aib, 4Pal, Orn, αMeL, αMeY; lipidated Lys; C-terminal amide; synthetic construct; SITE 2: note = 2-Aminoisobutyric Acid; SITE 10: note = 3-(4-Pyridyl)-L-alanine; SITE 12: note = L-ornithine; SITE 13: note = alpha-methyl-leucine; SITE 16: note = L-ornithine; SITE 17: note = Lysine is chemically modified through conjugation of the epsilon-amino group of the Lys
B6: Example 1045 (peptide)
chain: B1 chain with A21Q
modifications: non-natural residues; lipidated Lys AEEA-γGlu-C18 diacid; C-term amide; synthetic construct; SITE 2: note = 2-Aminoisobutyric Acid; SITE 10: note = 3-(4-Pyridyl)-L-alanine; SITE 13: note = alpha-methyl-leucine; SITE 16: note = L-ornithine; SITE 17: note = Lysine is chemically modified through conjugation of the epsilon-amino group of the Lysine side chain with (2-[2-(2-
B7: Example 1068 (peptide)
chain: B1 chain with Q12X, X25Y, I27L, E28A
modifications: C-terminal amide; lysine acylated with (γ-Glu)2-C18 diacid; synthetic construct; SITE 2: note = 2-Aminoisobutyric Acid; SITE 10: note = 3-(4-Pyridyl)-L-alanine; SITE 12: note = L-ornithine; SITE 13: note = alpha-methyl-leucine; SITE 16: note = L-ornithine; SITE 17: note = Lysine is chemically modified through conjugation of the epsilon-amino group of the Lys
B8: Example 1046 (peptide)
chain: B1 chain with A21Q
modifications: non-natural residues, C-terminal amide, acylated Lys with fatty diacid; synthetic construct; SITE 2: note = 2-Aminoisobutyric Acid; SITE 10: note = 3-(4-Pyridyl)-L-alanine; SITE 13: note = alpha-methyl-leucine; SITE 16: note = L-ornithine; SITE 17: note = Lysine is chemically modified through conjugation of the epsilon-amino group of the Lysine side chain with (gamma-Gl)
B9: Example 1063 (peptide)
chain: B1 chain with Q12X, X25Y, E28A
modifications: Lys acylated γGlu-C18 diacid; non-natural residues; C-amide; synthetic construct; SITE 2: note = 2-Aminoisobutyric Acid; SITE 10: note = 3-(4-Pyridyl)-L-alanine; SITE 12: note = L-ornithine; SITE 13: note = alpha-methyl-leucine; SITE 16: note = L-ornithine; SITE 17: note = Lysine is chemically modified through conjugation of the epsilon-amino group of the Lys
B10: Example 1056 (peptide)
chain: B1 chain with X25Y, I27L, E28A
modifications: non-natural residues; lipidated Lys; C-terminal amide; synthetic construct; SITE 2: note = 2-Aminoisobutyric Acid; SITE 10: note = 3-(4-Pyridyl)-L-alanine; SITE 13: note = alpha-methyl-leucine; SITE 16: note = L-ornithine; SITE 17: note = Lysine is chemically modified through conjugation of the epsilon-amino group of the Lysine side chain with (gamma-Gl)
B11: Example 1057 (peptide)
chain: B1 chain with X25Y, I27L, E28A
modifications: non-natural residues, lipidated Lys, C-terminal amide; synthetic construct; SITE 2: note = 2-Aminoisobutyric Acid; SITE 10: note = 3-(4-Pyridyl)-L-alanine; SITE 13: note = alpha-methyl-leucine; SITE 16: note = L-ornithine; SITE 17: note = Lysine is chemically modified through conjugation of the epsilon-amino group of the Lysine side chain with (Glu)-(ga)
B12: Example 1062 (peptide)
chain: B1 chain with Q12X, X25Y, E28A
modifications: C-terminal amide; lysine acylated with (Glu)2-γ-Glu-C18 diacid; synthetic construct; SITE 2: note = 2-Aminoisobutyric Acid; SITE 10: note = 3-(4-Pyridyl)-L-alanine; SITE 12: note = L-ornithine; SITE 13: note = alpha-methyl-leucine; SITE 16: note = L-ornithine; SITE 17: note = Lysine is chemically modified through conjugation of the epsilon-amino group of the Lys
B13: Example 1047 (peptide)
chain: YXQGTFTSDFSXXLDKKAQXAFIEYLLEGGPSSGAPPPGGSEE
modifications: non-natural residues, C-terminal amide, acylated Lys with fatty diacid; synthetic construct; SITE 2: note = 2-Aminoisobutyric Acid; SITE 12: note = L-ornithine; SITE 13: note = alpha-methyl-leucine; SITE 17: note = Lysine is chemically modified through conjugation of the epsilon-amino group of the Lysine side chain with (gamma-Glu)2-CO-(CH2)16-CO2H; SITE 20: note = 2-Am
B14: Example 1051 (peptide)
chain: B13 chain with E28A, G39E
modifications: Aib, Orn, αMeL; acylated Lys; C-terminal amide; synthetic construct; SITE 2: note = 2-Aminoisobutyric Acid; SITE 12: note = L-ornithine; SITE 13: note = alpha-methyl-leucine; SITE 17: note = Lysine is chemically modified through conjugation of the epsilon-amino group of the Lysine side chain with (gamma-Glu)2-CO-(CH2)16-CO2H; SITE 20: note = 2-Am

molecular target: human glucagon receptor (human) (UniProt P47871); test: cell-based or functional assay
Sequence (P47871 26-477): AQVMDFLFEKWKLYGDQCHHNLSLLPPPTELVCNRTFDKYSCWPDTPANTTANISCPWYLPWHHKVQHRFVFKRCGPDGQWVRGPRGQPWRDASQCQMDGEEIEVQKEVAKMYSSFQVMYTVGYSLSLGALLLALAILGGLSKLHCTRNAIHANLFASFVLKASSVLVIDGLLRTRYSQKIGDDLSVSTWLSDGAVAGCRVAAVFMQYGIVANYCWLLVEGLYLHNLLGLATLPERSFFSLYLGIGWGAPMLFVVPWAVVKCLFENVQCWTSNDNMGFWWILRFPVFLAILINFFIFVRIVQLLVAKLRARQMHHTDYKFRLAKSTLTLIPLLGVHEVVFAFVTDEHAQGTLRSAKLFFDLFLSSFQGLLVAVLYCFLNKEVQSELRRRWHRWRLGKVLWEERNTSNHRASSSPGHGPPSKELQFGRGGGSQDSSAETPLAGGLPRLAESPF

| Binder | cAMP Rel EC50, nM (1% HSA) [nM] | Relative cAMP EC50 [nM] | cAMP Rel EC50 (1% HSA) [nM] |
| --- | --- | --- | --- |
| B1 | 1890 |  |  |
| B2 |  | 13.7 | 1940 |
| B3 |  | 17.3 | 2910 |
| B4 |  | 6.33 | 1280 |
| B5 |  | 19.7 | 3080 |
| B6 | 1540 |  |  |
| B7 |  | 4.8 | 295 |
| B8 | 1680 |  |  |
| B9 |  | 10.6 | 2290 |
| B10 |  | 3.98 | 1650 |
| B11 |  | 5.29 | 2780 |
| B12 |  | 8.77 | 2380 |
| Y[Aib]QGTFTSD[4Pal]S[Dab][αMeL]LD[Orn]K([γGlu-γGlu-C18 diacid])AQ[Aib]AFIE[αMe4Pal]LLAGGPSSGAPPPEGSEE-NH2 [Example 1054] |  | 8.06 | 1630 |
| Y[Aib]QGTFTSD[4Pal]S[Dab][αMeL]LD[Orn]K([γGlu-γGlu-C18 diacid])AQ[αMe4Pal]AFIE[αMe4Pal]LLAGGPSSGAPPPEGSEE-NH2 [Example 1055] |  | 1.88 | 450 |
| B13 | 1510 | 8.18 |  |
| B14 |  | 10.3 | 1800 |

molecular target: hGLP-1R (Homo sapiens, UniProt P43220); test: cell-based or functional assay
Sequence (P43220 24-463): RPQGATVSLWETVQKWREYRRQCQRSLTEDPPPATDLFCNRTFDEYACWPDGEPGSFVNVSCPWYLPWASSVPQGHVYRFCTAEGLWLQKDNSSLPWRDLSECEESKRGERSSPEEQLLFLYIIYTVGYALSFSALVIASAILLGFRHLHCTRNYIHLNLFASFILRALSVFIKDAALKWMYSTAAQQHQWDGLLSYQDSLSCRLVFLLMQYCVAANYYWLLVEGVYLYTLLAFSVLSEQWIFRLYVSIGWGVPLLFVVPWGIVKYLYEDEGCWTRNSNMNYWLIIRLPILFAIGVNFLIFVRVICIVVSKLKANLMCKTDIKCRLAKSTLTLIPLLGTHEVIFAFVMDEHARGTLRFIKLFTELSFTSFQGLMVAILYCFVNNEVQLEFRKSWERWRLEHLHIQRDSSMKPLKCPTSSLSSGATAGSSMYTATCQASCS

| Binder | cAMP Rel EC50, nM (1% HSA) [nM] | Relative cAMP EC50 [nM] | cAMP Rel EC50 (1% HSA) [nM] |
| --- | --- | --- | --- |
| B1 | 642 |  |  |
| B2 |  | 7.89 | 912 |
| B3 |  | 4.56 |  |
| B4 |  | 2.23 | 780 |
| B5 |  | 11.6 | 2290 |
| B6 | 276 |  |  |
| B7 |  | 11.6 | 1330 |
| B8 | 528 |  |  |
| B9 |  | 6.96 | 626 |
| B10 |  | 4.25 |  |
| B11 |  | 5.16 |  |
| B12 |  | 7.75 |  |
| Y[Aib]QGTFTSD[4Pal]S[Dab][αMeL]LD[Orn]K([γGlu-γGlu-C18 diacid])AQ[Aib]AFIE[αMe4Pal]LLAGGPSSGAPPPEGSEE-NH2 [Example 1054] |  | 9.53 |  |
| Y[Aib]QGTFTSD[4Pal]S[Dab][αMeL]LD[Orn]K([γGlu-γGlu-C18 diacid])AQ[αMe4Pal]AFIE[αMe4Pal]LLAGGPSSGAPPPEGSEE-NH2 [Example 1055] |  | 14.6 |  |
| B13 | 1960 | 16.2 |  |
| B14 |  | 8.3 |  |

molecular target: T1, human GIP receptor (human); test: cell-based or functional assay

| Binder | cAMP Rel EC50, nM (1% HSA) [nM] | Relative cAMP EC50 [nM] | cAMP Rel EC50 (1% HSA) [nM] |
| --- | --- | --- | --- |
| B1 | 84.8 |  |  |
| B2 |  | 0.556 | 62.5 |
| B3 |  | 0.656 | 55.6 |
| B4 |  | 0.24 | 56.2 |
| B5 |  | 0.293 | 39.1 |
| B6 | 107 |  |  |
| B7 |  | 0.211 | 20.2 |
| B8 | 85 |  |  |
| B9 |  | 0.318 | 26.6 |
| B10 |  | 0.0929 | 29.6 |
| B11 |  | 0.128 | 25.9 |
| B12 |  | 0.726 | 67.5 |
| Y[Aib]QGTFTSD[4Pal]S[Dab][αMeL]LD[Orn]K([γGlu-γGlu-C18 diacid])AQ[Aib]AFIE[αMe4Pal]LLAGGPSSGAPPPEGSEE-NH2 [Example 1054] |  | 0.797 | 79.4 |
| Y[Aib]QGTFTSD[4Pal]S[Dab][αMeL]LD[Orn]K([γGlu-γGlu-C18 diacid])AQ[αMe4Pal]AFIE[αMe4Pal]LLAGGPSSGAPPPEGSEE-NH2 [Example 1055] |  | 0.366 | 78.9 |
| B13 | 60.8 | 0.28 |  |
| B14 |  | 0.172 | 32.6 |
